# Reference: patent US7718413B2, “Glycosylation variants of BACE” (Elan Pharmaceuticals, Inc., priority 2003, dated 2010)
# Numbering of substitutions follows the chain as printed. In names and notes the source's numbering stands. Several values for one entry are separate records, joined by “and”; a condition that tells them apart may be missing. Equal entries are not always repeated.
# B1: delta 2, 3: BACE variant S174I and N223A (SEQ ID NO:3), made on the 452Flag soluble truncated BACE template (protein)
# chain: ETDEEPEEPGRRGSFVEMVDNLRGKSGQGYYVEMTVGSPPQTLNILVDTGSSNFAVGAAPHPFLHRYYQRQLSSTYRDLRKGVYVPYTQGKWEGELGTDLVSIPHGPNVTVRANIAAITESDKFFINGINWEGILGLAYAEIARPDDSLEPFFDSLVKQTHVPNLFSLQLCGAGFPLAQSEVLASVGGSMIIGGIDHSLYTGSLWYTPIRREWYYEVIIVRVEINGQDLKMDCKEYNYDKSIVDSGTTNLRLPKKVFEAAVKSIKAASSTEKFPDGFWLGEQLVCWQAGTTPWNIFPVISLYLMGEVTNQSFRITILPQQYLRPVEDVATSQDDCYKFAISQSSTGTVMGAVIMEGFYVVFDRARKRIGFAVSACHVHDEFRTAAVEGPFVTLDMEDCGYNIPQTD
# modifications: Flag tag; Human BACE with serine to isoleucine (S174I) and asparagine to alanine (N223A) mutations.
# B2: delta 3: BACE variant N223A (SEQ ID NO:2), made on the 452Flag soluble truncated BACE template (protein)
# chain: B1 chain with I129S
# modifications: Flag tag; Human BACE with asparagine to alanine (N223A) mutation.
# B3: wild type: fully glycosylated soluble BACE truncated after residue 451 with Flag sequence (protein)
# chain: TQHGIRLPLRSGLGGAPLGLRLPRETDEEPEEPGRRGSFVEMVDNLRGKSGQGYYVEMTVGSPPQTLNILVDTGSSNFAVGAAPHPFLHRYYQRQLSSTYRDLRKGVYVPYTQGKWEGELGTDLVSIPHGPNVTVRANIAAITESDKFFINGSNWEGILGLAYAEIARPDDSLEPFFDSLVKQTHVPNLFSLQLCGAGFPLNQSEVLASVGGSMIIGGIDHSLYTGSLWYTPIRREWYYEVIIVRVEINGQDLKMDCKEYNYDKSIVDSGTTNLRLPKKVFEAAVKSIKAASSTEKFPDGFWLGEQLVCWQAGTTPWNIFPVISLYLMGEVTNQSFRITILPQQYLRPVEDVATSQDDCYKFAISQSSTGTVMGAVIMEGFYVVFDRARKRIGFAVSACHVHDEFRTAAVEGPFVTLDMEDCGYNIPQTD
# modifications: left off: small tags and cut ends
# Tested on: MBP-C125Swe
# Assay: β-Secretase assay: cleavage of substrate MBP-C125Swe, ELISA read-out
# Format: biochemical
# Settings: group mean of 6 samples; 0.02 μL BACE, MBP-C125Swe 220 nM, one hour, 37° C., pH 4.5
# Excerpt: Peptide substrate MBP-C125Swe was used for all assays. MBP-C125Swe is a bacterial fusion protein containing maltose binding protein MBP fused to the C-terminal 125 amino acids of the Swedish variant (Lys670Asn, Met671Leu double mutation) of APP. Sinha et al (1999). The C-terminal 125 amino acids were cloned into the expression vector pMALc (New England Biolabs) and transfected into E. coli. The fusion proteins were induced and solubilized by sonication of the pelleted bacteria. The proteins were purified by affinity chromatography on amylose-agarose, made up to 3 M guanidine, and stored in 10 mM Tris, pH 7.5, 0.2% Triton X-100, and 0.15 M guanidine.
# All digests were done with 0.02 μL BACE (Δ3, 0.69 μM; Δ2,3 0.77 μM; wild type 0.66 μM) at 37° C. in a total volume of 50 μL 0.06% Triton X-100 and 20 mM sodium acetate, pH 4.5. Samples were incubated with MBP-C125Swe substrate (10 μg/mL, 220 nM) for one hour. Digests were assayed in an ELISA assay, capturing with antibody to MBP and detecting with biotinylated Sw192, a neo-epitope specific antibody recognizing the free C-terminal leucine of the N-terminal product of β-secretase cleavage of the APPSwe sequence. See Seubert. P. et al. Nature 361:260-263 (1993), and Knops, J. et al. J. Biol. Chem. 270:2419-2422 (1995). Product was allowed to bind for 24 hours at 4° C., then quantitated with streptavidin-horse radish peroxidase. Biotinylated peptide corresponding to the N-terminal cleavage product was synthesized and used as a standard.
# These values were converted from the above data by the following equation: nM product/hr (ng enzyme)×45 ng enzyme/pm enz× 1/220 nM substrate×⅓,660 sec/hr×50,000 nL/reaction.
row,Cleavage Product,Molecule
1,109 pM and 108 pM,B1
2,119 pM and 126 pM,B2
3,85 pM and 90 pM,B3

# Same assay, conditions: group mean; 0.02 μL BACE, MBP-C125Swe 220 nM, one hour, 37° C., pH 4.5
Molecule,Activity,Substrate Conversion
B1,"15,753 pM/h/ng enz and 15,662 pM/h/ng enz",5.19% and 5.16%
B2,"19,071 pM/h/ng enz and 20,173 pM/h/ng enz",5.68% and 6.01%
B3,"14,308 pM/h/ng enz and 15,177 pM/h/ng enz",4.05% and 4.30%
